Series [1] is described as follows: Enzyme kinetics of purified TK, thymidine. Type of series: biochemical. The settings on record: substrate thymidine. On the procedure: (§1) A single colony of pET23d:HSVTK, pET23d:30, pET23d:75 and pET23d:132 in BL21(DE3)tk^− cells is used to inoculate 5 ml of M9ZB medium (1% tryptone, 0.5% NaCl, 1×M9 salts, 1 mM MgSO4, 100 μM CaCl2 and 0.2% glucose) containing cabenicillin at 20 μg/ml. The culture is incubated at 37° C. overnight. The following day the 5 ml culture is used to inoculate 1L M9ZB+cabenicillin at 20 μg/ml and the culture allowed to grow at 37° C. to OD600 0.1. At that point IPTG is added to 0.4 mM and the culture incubated a further 3 hours. The cells are chilled on ice, pelleted by centrifugation and the pellets washed once in cell wash buffer (50 mM Tris, pH 7.5, 5mM EDTA, 10% sucrose) prior to freezing the pellets at −70° C. […]
(§2) A thymidylyl-sepharose column is used for a one step purification procedure (see Example 2). […] The extent of purification is monitored by Coomassie stained SDS:PAGE analysis and the concentration of purified protein determined using the BioRad Reagent (Bradford Reagent). […]
(§3) The kinetics of thymidine, ganciclovir and acyclovir phosphorylation by the wild-type, mutant 30 and 75 thymidine kinase enzymes with variant concentrations of radioactive nucleoside substrate are determined essentially as described in Example 3. Km and Vmax values are determined from double reciprocal plots and kcat values are calculated using the equation Vmax=kcat [Eo] where [Eo] is the total enzyme concentration. […]

Series [2] can be described thus: Enzyme kinetics of purified TK, ganciclovir. To be noted: substrate ganciclovir. Type of series: biochemical. The protocol:
as §1, §2, §3

The test system of series [3] is ts13 BHK tk− cells. The series is described as follows: ED50 determination with GCV or ACV in transfected BHK tk− cells (Alamar Blue). The settings on record: pooled G418-resistant transfectants, 4 days on nucleoside analog. It counts as cell-based, baby hamster. On the procedure:
Briefly, the cell transfections are performed as follows. Approximately 5×10^5 ts13 BHK tk^− cells (ATCC CRL-1632) are plated on 100 mm dishes in DMEM+10% calf serum. For each transfection 1 μg of pSV2neo and 10 μg of a pCMV construct (pCMV, pCMV:TK-wrong (HSVTK in the wrong orientation relative to the promoter), pCMV:HSVTK, pCMV:30, pCMV:75 or pCMV:132 DNA) in 0.25M CaCl2 are mixed with 0.5 ml 2×BBS (see Chen and Okayama) and preincubated at 37° C. at 2.5% CO2 […]. The CaCl2/DNA mix is added dropwise to the plates and mixed in well. After a 24 hour incubation at 37° C. in a 2.5% CO2 wet incubator, the cells are rinsed twice with Dulbecco PBS minus Ca/Mg and fed with fresh DMEM+10% calf serum. Plates are incubated at 37° C. with 6% CO2. After 72 hours post-transfection the cells are split 1:3 and plated in DMEM+10% calf serum containing G418 at 600 μg/ml.
The cells are selected on G418 (600 μg/ml) at 37° C. for 17 days. During this time the plates are pooled (for each DNA transfection) and split three times at a ratio of 1:3. Approximately 30-40 clones are selected in this manner for each transfected DNA containing a tk gene in the correct orientation. The pCMV and pCMV:TK-wrong transfections yielded between 130 and 140 clones each. […]
Determination of the fluorescence level of cells incubated in the presence of Alamar Blue directly relates to cell viability.

The subject of series [4] is BHK tk− cells. The series is described as follows: Sensitivity of guanylate kinase transfectant pools to ACV in TK expressing clones. Type of series: cell-based, baby hamster. The settings on record: three days with ACV. On the procedure:
pREP8-7, pREP8-7:hgmk and pREP8-7:mgmk are used to transfect BHK tk, TK-transfected clone C3 and 75-transfected clone D4. Histidinol is used to select pools of stable transfectants and to isolate individual clones.
As in Example 8, pools of transfectants are placed in 96 well microtiter dishes at 1000 cells/well. Eight replicates are incubated for three days in the presence of various GCV or ACV concentrations.

Where two headings read alike, the source gives them in different places.

As a reminder, the Km is the concentration of substrate that gives half-maximal velocity. Turning to “WT: wild-type HSV-1 thymidine kinase with McKnight sequence (pT7:HSVTKII and derived vectors)”, the Km in series [1] came to 0.38 µM; in series [2] it was 47.6 µM. Besides, the values for the kcat entry in series [1] (per active site) and in series [2] (per active site) were “.230 s⁻¹” and “.050 s⁻¹”, respectively. For the same molecule, the values for the EC50 in series [3] (read-out: ED50 ACV) and in series [3] (read-out: ED50 GCV) were 25 µM and 20 µM, respectively.

B1: Guanylate kinase: human or murine guanylate kinase expressed from pREP8-7 in wild-type TK clone C3 cells (protein, UniProt Q16774 2-197, looked up)
Guanylate kinase: SGPRPVVLSGPSGAGKSTLLKRLLQEHSGIFGFSVSHTTRNPRPGEENGKDYYFVTREVMQRDIAAGDFIEHAEFSGNLYGTSKVAVQAVQAMNRICVLDVDLQGVRNIKATDLRPIYISVQPPSLHVLEQRLRQRNTETEESLVKRLAAAQADMESSKEPGLFDVVIINDSLDQAYAELKEALSEEIKKAQRTGA
As to B1, in series [4], the “increased sensitivity to ACV relative to TK expression alone” value is on record as “approximately 2 fold”.
